According to PMC12164976 (Science Advances, 2025):
Like-named read-outs stand apart in the source and are kept apart here. No end group written: not given here.

T1: chloroplast signal recognition particle 43-kDa protein (cpSRP43), wild type, full length (A. thaliana, UniProt O22265 57-373)
T1 sequence: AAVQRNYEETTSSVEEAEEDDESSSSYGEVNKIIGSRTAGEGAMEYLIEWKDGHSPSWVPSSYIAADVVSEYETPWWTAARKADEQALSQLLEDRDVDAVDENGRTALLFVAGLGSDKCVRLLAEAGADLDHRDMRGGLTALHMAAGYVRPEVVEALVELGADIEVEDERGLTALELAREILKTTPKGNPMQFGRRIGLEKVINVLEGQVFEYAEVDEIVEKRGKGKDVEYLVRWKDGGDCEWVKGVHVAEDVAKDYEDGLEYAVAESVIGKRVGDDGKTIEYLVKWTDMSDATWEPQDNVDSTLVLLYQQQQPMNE


Experiments:
Experiment in all cases: fluorescence polarisation
[1] = biological target: T1, chloroplast signal recognition particle …
[2] = biological target: T1, chloroplast signal recognition particle …; remark: listed apart in the source
[3] = biological target: T1, chloroplast signal recognition particle …; remark: listed apart in the source

Binder	Kd [1] [nM]	Kd [2] [nM]	Kd [3] [nM]
GSFDPLGLADD (also: HiLyte Fluor 488 label, position not given here) [HiLyte Fluor 488-labeled L11 peptide]	710	12	28
QKQKAPPGTARRKRKAC (also: fluorescein label, position not given here) [fluorescein-labeled 54C peptide]	5000	36	230
